Paper PMC10128040, “Structural Elucidation of a Protective B Cell Epitope on Outer Surface Protein C (OspC) of the Lyme Disease Spirochete, Borreliella burgdorferi” (mBio, 2023)

Experiments:
[1] = biological target: recombinant OspC type B (OspCB), residues 38 to 202 (B. burgdorferi strain ZS7) (UniProt Q44977); test: crystal structure; OspCB alone (22°C, 100 mM sodium phosphate citrate pH 4.2, 41.9% PEG 600; 1.5 Å) and OspCK alone (4°C, 100 mM Tris pH 8.5, 40% PEG 400, 200 mM LiSO4; 1.9 Å); P2_(1)
[2] = biological target: recombinant OspC type K (OspCK), residues 38 to 202 (B. burgdorferi strain 297); test: as above
[3] = biological target: T1, biotinylated recombinant OspC type A (OspCA) (Borreliella burgdorferi strain B31, …, UniProt Q07337, biotinylated (site not stated)); test: ELISA; capture ELISA: B5 IgG coated at 1 μg/mL in PBS; biotinylated OspC types A, B, K diluted 2-fold from 20 μg/mL; detected with avidin-HRP; details: both partners purified
T1 construct: Outer surface protein C type A, B. burgdorferi strain B31, residues 38 to 201; also called biotinylated OspCA; biotin-tagged recombinant OspC type A; not shown: deca-histidine, N-terminal, cleaved; SUMO, N-terminal, cleaved

[4] = biological target: T2, biotinylated recombinant OspC type B (OspCB) (Borreliella burgdorferi strain ZS7, …, UniProt Q44977, biotinylated (site not stated)); test: as above; details: both partners purified
T2 construct: Outer surface protein C type B, B. burgdorferi strain ZS7, residues 38 to 202; also called biotinylated OspC type B; biotin-tagged recombinant OspC type B; not shown: deca-histidine, N-terminal, cleaved

[5] = biological target: native OspC type A (OspCA) on the surface of viable B. burgdorferi strain B313 (B. burgdorferi (endogenous in strain B313)) (UniProt Q07337); test: flow cytometry on cells; 5 x 10^6 live B. burgdorferi B313 cells incubated with 10 μg/mL chimeric B5 IgG1 at 37°C for 1 h in BSK-II; goat anti-human IgG-Alexa 647; BD FACSCalibur
[6] = biological target: the molecule itself; test: crystal structure; B5 Fab complexed with OspCA 1:1, 10 mg/mL; sitting drop, 22°C, 100 mM sodium cacodylate pH 6.5, 5% PEG 8K, 40% MPD; 2.7 Å, P2_(1)2_(1)2
[7] = biological target: T1, biotinylated recombinant OspC type A …; test: BLI; biotinylated OspCA (3 μg/mL) captured on streptavidin biosensors; MAb B5 100 to 1.56 nM, 5 min association, 30 min dissociation; PBS with 2% BSA; 1:2 bivalent analyte model; apparent; Octet RED96e; details: both partners purified
[8] = biological target: T3, recombinant OspC type A (OspCA), residues 38 to 201 (B. burgdorferi strain B31, UniProt Q07337); test: crystal structure; B5 Fab complexed with OspCA 1:1, 10 mg/mL; sitting drop, 22°C, 100 mM sodium cacodylate pH 6.5, 5% PEG 8K, 40% MPD; 2.7 Å, P2_(1)2_(1)2; details: both partners purified
T3 construct: Outer surface protein C type A, B. burgdorferi strain B31, residues 38 to 201; Homodimer; also called rOspC type A; outer surface protein C; not shown: deca-histidine, N-terminal, cleaved; SUMO, N-terminal, cleaved

In the case of “recombinant OspC type B (OspCB), residues 38 to 202 (from UniProt Q44977 38-202) (domain or fragment)”, the stoichiometry N [1] is reported as 2.

Work on “recombinant OspC type K (OspCK), residues 38 to 202 (domain or fragment)” yielded a stoichiometry N [2] of 2.

B1: chimeric B5 IgG1 (mouse B5 VH and VL on human IgG1 Fc and kappa light chain) (antibody, V domains shown)
VH: EVQLEESGPEQKKPGETVMMSCKASGYTFTDHSMHWVKQAPGKGLKWMGWINTETGEPTCADDFKGRFALSLETSSRTAFLQINNLKNEDTAIYFCIGRWGYYVYWGQGTTLVVSS
VL: DIQMTQSPASLSVSVGESVTIICRASENINSNLAWYQQKQGKPPQLLVYAATNLAGGVPSRFSGSGSGTQYSLKINSLQSEDFGTYYCQHVWGSPWTFGGGTKLEIK
notes: mouse B5 VH, as the VH of the heavy chain of m1; human IgG1 heavy chain constant region from the 'human IgG1 Fc' expression vector; mouse B5 VL, as the VL of the light chain of m1; human kappa light chain constant region from the expression vector; IgG1, kappa; also called chimeric derivative of B5; source: Expi293 cells, transfected, purified; copies: 2 + 2
For B1, the binding result [3] was “binds”, the binding result [4] was “no binding (tested: 20 μg/mL)” and the MFI [5] was > 3200.

B2: recombinant OspC type A (OspCA), residues 38 to 201 (domain or fragment, B. burgdorferi strain B31, UniProt Q07337 38-201, looked up)
chain: KGPNLTEISKKITDSNAVLLAVKEVEALLSSIDEIAAKAIGKKIHQNNGLDTENNHNGSLLAGAYAISTLIKQKLDGLKNEGLKEKIDAAKKCSETFTNKLKEKHTDLGKEGVTDADAKEAILKTNGTKTKGAEELGKLFESVEVLSKAAKEMLANSVKELTSP
notes: Outer surface protein C type A, B. burgdorferi strain B31, residues 38 to 201; Homodimer; also called rOspC type A; outer surface protein C; not shown: deca-histidine, N-terminal, cleaved; SUMO, N-terminal, cleaved
For B2, the “stoichiometry N” value [6] was 2.

B3: B5 IgG (as used for BLI and HX-MS; mouse IgG2a or chimeric IgG1 not told) (antibody, V domains shown)
VH: B1 VH
VL: B1 VL
notes: mouse B5 VH, as the VH of the heavy chain of m1; mouse B5 VL, as the VL of the light chain of m1; The methods say the chimeric IgG1 was used for dot blot and flow cytometry, which may mean that the mouse IgG2a was used here; also called MAb B5; B5 MAb; copies: 2 + 2
B3 gave a Kd [7] of ~0.2 nM.

B4: B5 Fab fragment (Fab, V domains shown)
VH: B1 VH
VL: B1 VL
notes: VH and CH1 of mouse MAb B5; VL and CL of mouse MAb B5; Fab of the mouse IgG2a MAb B5; also called Fab B5; source: papain digestion of B5 IgG from the CDC; Fc depleted by protein A FPLC; purified by SEC (Superdex 200)
B4 was tested, and the “stoichiometry N” value [8] was 1.
